Reference: patent US20230192839A1 (published 2023)

Key:
[1] = target: T1, human CD33 antigen (human, UniProt P20138 18-259, limits assumed); test: SPR (Biacore T200), 37 C, scFv-Fc, 0 uM MTX
T1 construct: whole entry named; also called Siglec-3
Protocol: (§1) All binding kinetics analysis was performed on label-free Biacore surface plasmon biosensors (Biacore T200™ from GE Life Sciences) at 37° C. in 10 mM Hepes pH 7.4, 150 mM NaCl, 0.05% Tween-20 (HBST+), with or without 10 µM MTX. The Biacore data were processed in Biacore T200 Evaluation Software, and the data were double-referenced (Myszka, 1999, J Mol Recognit 12(5):279-284) and fit globally to a simple Langmuir with mass transport model to determine the equilibrium dissociation constant, KD, from the ratio of the kinetic rate constants (KD = koff/kₒₙ). In some cases the binding of antigen was very low (or not detectable) in the presence of 10 µM MTX and as a result kinetic rate constants could not be accurately determined. In these cases, a KD (or KD limit) was estimated based on the binding response at the highest analyte concentration tested or based on the typical limit of detection for a Biacore T200.

[2] = target: T1, human CD33 antigen; test: SPR (Biacore T200), 37 C; KD at 10 uM MTX / KD at 0 uM MTX
Protocol: as §1

[3] = target: T1, human CD33 antigen; test: SPR (Biacore T200), 37 C, scFv-Fc, 10 uM MTX
Protocol: as §1
“*”: For interactions where kₒₙ and koff are reported, the KD was calculated using koff/kₒₙ.

T1 sequence (P20138 18-259 limits assumed): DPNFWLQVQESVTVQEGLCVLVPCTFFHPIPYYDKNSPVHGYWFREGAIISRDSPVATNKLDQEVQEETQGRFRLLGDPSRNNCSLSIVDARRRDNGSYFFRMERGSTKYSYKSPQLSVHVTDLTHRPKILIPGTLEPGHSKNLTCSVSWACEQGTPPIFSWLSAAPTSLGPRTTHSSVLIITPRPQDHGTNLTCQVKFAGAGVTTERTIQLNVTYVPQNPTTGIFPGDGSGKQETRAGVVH

Binder	Kd [1]	koff [1]	kon [1]	Ratio: KD with MTX / KD without MTX [2]	Kd [3]	koff [3]	kon [3]
P01_C05 scFv-Fc fusion (scFv, V domains shown, Tested as scFv-Fc fusion) VH: QVQLVESGGGLVQAGGSLRLSCAASRRSSRSWAMHWVRQAPGKGLEWVAVISYDGRLKYYADSVKGRFTISRDNAEYLVYLQMNSLRAEDTAVYYCAAEQWGTNDGPDGGMDYWGQGTLVTVSS VL: DIQMTQSPSSLSASVGDRVTITCRASQTIGSHLNWYQQKPGKAPKLLIYGTSNLQSGVPSRFSGSGSGTDFTLTISSLQPEDFATYYCQQSYSSPLTFGQGTKVEIK	86 nM	0.0066 s⁻¹	76000 M⁻¹ s⁻¹	0.5	44.7 nM	0.0045 s⁻¹	100000 M⁻¹ s⁻¹
P02_E08 scFv-Fc fusion (scFv, V domains shown, Tested as scFv-Fc fusion) VH: QVQLVESGGGLVQAGGSLRLSCAASRRSSRSWAMHWVRQAPGKGLEWVAVISYDGRLKYYADSVKGRFTISRDNAEYLVYLQMNSLRAEDTAVYYCAASDYDGGGLFDLWGQGTLVTVSS VL: QSVLTQPPSASGTPGQRVTISCSGSNSNIGDNYVHWYQQLPGTAPKLLIYMNNQRPSGVPDRFSGSKSGTSASLAISGLRSEDEADYYCATWDDSLSGVVFGTGTKLTVL	211 nM	0.01 s⁻¹	47000 M⁻¹ s⁻¹	> 3.4	–	–	–
P02_D08 scFv-Fc fusion (scFv, V domains shown, Tested as scFv-Fc fusion) VH: QVQLVESGGGLVQAGGSLRLSCAASRRSSRSWAMHWVRQAPGKGLEWVAVISYDGRLKYYADSVKGRFTISRDNAEYLVYLQMNSLRAEDTAVYYCAAERGDGLDGNVGLDIWGQGTLVTVSS VL: DIQMTQSPSSLSASVGDRVTITCRASQSISKYLNWYQQKPGKAPKLLIYGASTLQSGVPSRFSGSGSGTDFTLTISSLQPEDFATYYCQQSYSSGTFGQGTKVEIK	100 nM	0.0061 s⁻¹	61000 M⁻¹ s⁻¹	7.1	705 nM	0.062 s⁻¹	88000 M⁻¹ s⁻¹
P02_A10 scFv-Fc fusion (scFv, V domains shown, Tested as scFv-Fc fusion) VH: QVQLVESGGGLVQAGGSLRLSCAASRRSSRSWAMHWVRQAPGKGLEWVAVISYDGRLKYYADSVKGRFTISRDNAEYLVYLQMNSLRAEDTAVYYCAAESEWDTGGFDVWGQGTLVTVSS VL: DIQMTQSPSSLSASVGDRVTITCRASQSIGSYLNWYQQKPGKAPKLLIYSSSNLQSGVPSRFSGSGSGTDFTLTISSLQPEDFATYYCQQSYTSGTFGQGTKVEIK	523 nM	0.044 s⁻¹	84000 M⁻¹ s⁻¹	> 17.3	–	–	–
P07_C04 scFv-Fc fusion (scFv, V domains shown, Tested as scFv-Fc fusion) VH: QVQLVESGGGLVQAGGSLRLSCAASRRSSRSWAMHWVRQAPGKGLEWVAVISYDGRLKYYADSVKGRFTISRDNAEYLVYLQMNSLRAEDTAVYYCAAEPDGEGTNGGLDIWGQGTLVTVSS VL: DIQMTQSPSSLSASVGDRVTITCRASQNISRYLNWYQQKPGKAPKLLIYSASSLQTGVPSRFSGSGSGTDFTLTISSLQPEDFATYYCQQSYSSGAFGQGTKVEIK	31 nM	0.0029 s⁻¹	95000 M⁻¹ s⁻¹	4.7	144 nM	0.025 s⁻¹	170000 M⁻¹ s⁻¹
P03_H04 scFv-Fc fusion (scFv, V domains shown, Tested as scFv-Fc fusion) VH: QVQLVESGGGLVQAGGSLRLSCAASRRSSRSWAMHWVRQAPGKGLEWVAVISYDGRLKYYADSVKGRFTISRDNAEYLVYLQMNSLRAEDTAVYYCAADPHDGYGGGPGFDYWGQGTLVTVSS VL: QSVLTQPPSASGTPGQRVTISCSGSSSNIGSNYVYWYQQLPGTAPKLLIYRSNQRPSGVPDRFSGSKSGTSASLAISGLRSEDEADYYCAAWDDTLSAVVFGTGTKLTVL	366 nM	0.026 s⁻¹	72000 M⁻¹ s⁻¹	> 43	–	–	–
P02_C02 scFv-Fc fusion (scFv, V domains shown, Tested as scFv-Fc fusion) VH: QVQLVESGGGLVQAGGSLRLSCAASRRSSRSWAMHWVRQAPGKGLEWVAVISYDGRLKYYADSVKGRFTISRDNAEYLVYLQMNSLRAEDTAVYYCAAEGGMGLDPWGQGTLVTVSS VL: DIQMTQSPSSLSASVGDRVTITCRASQTISSYLNWYQQKPGKAPKLLIYAASNLHSGVPSRFSGSGSGTDFTLTISSLQPEDFATYYCQQSYSSGTFGQGTKVEIK	213 nM	0.02 s⁻¹	92000 M⁻¹ s⁻¹	1	221 nM	0.025 s⁻¹	110000 M⁻¹ s⁻¹
P04_C09 scFv-Fc fusion (scFv, V domains shown, Tested as scFv-Fc fusion) VH: QVQLVESGGGLVQAGGSLRLSCAASRRSSRSWAMHWVRQAPGKGLEWVAVISYDGRLKYYADSVKGRFTISRDNAEYLVYLQMNSLRAEDTAVYYCAAEANESDSGGIDVWGQGTLVTVSS VL: DIQMTQSPSSLSASVGDRVTITCRASQTIGGYLNWYQQKPGKAPKLLIYAASSLQSGVPSRFSGSGSGTDFTLTISSLQPEDFATYYCQQGYSSGAFGQGTKVEIK	12 nM	0.0018 s⁻¹	160000 M⁻¹ s⁻¹	17.7	205 nM	0.0089 s⁻¹	44000 M⁻¹ s⁻¹

Further binders by falling Kd [1], results first:

Kd [1]	koff [1]	kon [1]	Ratio: KD with MTX / KD without MTX [2]	Kd [3]	koff [3]	kon [3]	Binder
456 nM	0.018 s⁻¹	40000 M⁻¹ s⁻¹	> 20.4	–	–	–	P02_D09 scFv-Fc fusion (scFv, V domains shown, Tested as scFv-Fc fusion) VH: QVQLVESGGGLVQAGGSLRLSCAASRRSSRSWAMHWVRQAPGKGLEWVAVISYDGRLKYYADSVKGRFTISRDNAEYLVYLQMNSLRAEDTAVYYCAAEEGDGGFFDYWGQGTLVTVSS VL: QSVLTQPPSASGTPGQRVTISCSGSSSNIGSNYVNWYQQLPGTAPKLLIYRNNERPSGVPDRFSGSKSGTSASLAISGLRSEDEADYYCAAWDGSLSGRGVFGTGTKLTVL
170 nM	0.023 s⁻¹	140000 M⁻¹ s⁻¹	> 2	–	–	–	P02_B03 scFv-Fc fusion (scFv, V domains shown, Tested as scFv-Fc fusion) VH: QVQLVESGGGLVQAGGSLRLSCAASRRSSRSWAMHWVRQAPGKGLEWVAVISYDGRLKYYADSVKGRFTISRDNAEYLVYLQMNSLRAEDTAVYYCAADQDVGSVGNYYGNGMDVWGQGTLVTVSS VL: not shown
143 nM	0.01 s⁻¹	71000 M⁻¹ s⁻¹	> 92.5	–	–	–	P01_F05 scFv-Fc fusion (scFv, V domains shown, Tested as scFv-Fc fusion) VH: QVQLVESGGGLVQAGGSLRLSCAASRRSSRSWAMHWVRQAPGKGLEWVAVISYDGRLKYYADSVKGRFTISRDNAEYLVYLQMNSLRAEDTAVYYCAAGPDRWAGYDAFDVWGQGTLVTVSS VL: DIQMTQSPSSLSASVGDRVTITCRASQTINTHLNWYQQKPGKAPKLLIYGASNLQGGVPSRFSGSGSGTDFTLTISSLQPEDFATYYCQQSYSTPLTFGQGTKVEIK
132 nM	0.0094 s⁻¹	71000 M⁻¹ s⁻¹	> 83	–	–	–	P03_G12 scFv-Fc fusion (scFv, V domains shown, Tested as scFv-Fc fusion) VH: QVQLVESGGGLVQAGGSLRLSCAASRRSSRSWAMHWVRQAPGKGLEWVAVISYDGRLKYYADSVKGRFTISRDNAEYLVYLQMNSLRAEDTAVYYCAADPTEGWSYLDYWGQGTLVTVSS VL: DIQMTQSPSSLSASVGDRVTITCRASQGISSYLNWYQQKPGKAPKLLIYGASRLQSGVPSRFSGSGSGTDFTLTISSLQPEDFATYYCQQGYSSGTFGQGTKVEIK
19 nM	0.0026 s⁻¹	140000 M⁻¹ s⁻¹	0.1	1.6 nM	0.0006 s⁻¹	390000 M⁻¹ s⁻¹	P01_B02 scFv-Fc fusion (scFv, V domains shown, Tested as scFv-Fc fusion) VH: QVQLVESGGGLVQAGGSLRLSCAASRRSSRSWAMHWVRQAPGKGLEWVAVISYDGRLKYYADSVKGRFTISRDNAEYLVYLQMNSLRAEDTAVYYCAAADWYSGGGDALDIWGQGTLVTVSS VL: DIQMTQSPSSLSASVGDRVTITCRASQTIYNYLNWYQQKPGKAPKLLIYGASNLQSGVPSRFSGSGSGTDFTLTISSLQPEDFATYYCQQTYSSPTFGQGTKVEIK
